Blank lines part the entries; values can stand above or below the molecule they belong to. Where no end group is shown, it is not given here.
What was measured:
BKB2 receptor [1] = target: T1, BKB2 receptor (Homo sapiens, UniProt P30411); conditions: BKB2 receptor agonist; cited from earlier work
T1 sequence (P30411 1-391): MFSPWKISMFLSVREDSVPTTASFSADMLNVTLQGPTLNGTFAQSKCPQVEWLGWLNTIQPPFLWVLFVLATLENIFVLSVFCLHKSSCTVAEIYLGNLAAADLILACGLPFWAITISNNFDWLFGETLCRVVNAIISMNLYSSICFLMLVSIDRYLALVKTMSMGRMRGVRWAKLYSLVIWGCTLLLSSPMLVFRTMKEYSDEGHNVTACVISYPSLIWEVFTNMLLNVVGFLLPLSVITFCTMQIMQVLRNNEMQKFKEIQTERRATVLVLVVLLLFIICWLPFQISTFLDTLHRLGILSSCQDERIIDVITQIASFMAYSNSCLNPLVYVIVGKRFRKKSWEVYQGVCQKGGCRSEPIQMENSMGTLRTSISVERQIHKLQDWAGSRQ

[2] = cited from earlier work
[3] = target: human bradykinin B2 receptor (BKB2R) (human) (UniProt P30411); test: cell-based or functional assay
NUGC-4 = test: MTT Cell Proliferation Assay, NUGC-4; type: cell-based, human; conditions: 120 hours of exposure
Description: (§1) This Example describes characterization of the cytotoxic activity of herein described anti-BKB2R monoclonal antibodies against a panel of cancer cell lines. BxPC-3 is a human adenocarcinoma cell line originally isolated from the pancreas (pancreatic cancer) (ATCC # CRL-1687; Tan et al., Cancer Invest. 4: 15-23, 1986. PubMed: 3754176). MV-4-11 is a human biphenotypic B myelomonocytic leukemia (mixed-lineage leukemia, MLL-AF4) cell line originally isolated from the peripheral blood (ATCC # CRL-959; Lange et al., Blood 70: 192-199, 1987. PubMed: 3496132). Hep G2 is a human hepatocellular carcinoma cell line isolated from the liver (liver cancer) (ATCC # HB-8065; Aden et al., Nature 282: 615-616, 1979. PubMed: 233137). RS4;11 is a human acute lymphoblastic leukemia (mixed-lineage leukemia, MLL-AF4) cell line isolated from the bone marrow (ATTC # CRL-1873) Stong et al., Blood 65: 21-31, 1985. PubMed: 3917311). HT-29 is a human colorectal adenocarcinoma (ATTC # HTB-38) cell line isolated from the colon (colon cancer). Fogh et al., J. Natl. Cancer Inst. 58: 209-214, 1977. PubMed: 833871). NUGC-4 is a human stomach carcinoma isolated from the stomach paragastiric lymph node (JCRB # JCRB0834; Akiyama et al., Jpn. J. Surg., 18: 438-446, 1988). […]
(§2) The anti-proliferative activity of test compounds against the indicated cell lines was evaluated in vitro using the ATCC's MTT Cell Proliferation Assay (Catalog No. 30-1010K). After the 120 hour incubation with drug (e.g., anti-BKB2R mAb or cisplatin), cell proliferation was measured by addition of MTT reagent to each well and incubation for an additional 4 hrs. […] Optical absorbance (570 nm) of the test wells was measured and then quantitated relative to control wells that received no drug. Results were expressed as percent inhibition versus compound concentration and graphed, as shown in FIGS. 19-25, for cell lines BxPC-3, MV-4;11, HepG2, RS-4;11, HT-29, NUGC-4, and PC-3, respectively.

Hep G2 = test: MTT Cell Proliferation Assay, Hep G2; type: cell-based, human; conditions: 120 hours of exposure
Description: as §1, §2

BxPC-3 = test: MTT Cell Proliferation Assay, BxPC-3; type: cell-based, human; conditions: 120 hours of exposure
Description: as §1, §2

RS-4;11 = test: MTT Cell Proliferation Assay, RS-4;11; type: cell-based, human; conditions: 120 hours of exposure
Description: as §1, §2

HT-29 = test: MTT Cell Proliferation Assay, HT-29; type: cell-based, human; conditions: 120 hours of exposure
Description: as §1, §2

MV-4-11 = test: MTT Cell Proliferation Assay, MV-4-11; type: cell-based, human; conditions: 120 hours of exposure
Description: as §1, §2

PC-3 = test: MTT Cell Proliferation Assay, PC-3; type: cell-based, human; conditions: 120 hours of exposure
Description: as §1, §2

BKB2 receptor [4] = target: T1, BKB2 receptor; test: Intracellular calcium release in CHO-K1/B2/Gα15 cells (FLIPR Calcium 4); type: cell-based; parameters: expressed in transfected cells; conditions: bradykinin positive control (10 uM in the method); mean+/−SD, n=2
Method: A stable CHO cell line expressing the human BKB2 receptor (CHO-K1/B2/Gα15) was used for the screening. The antibody was diluted to five different concentrations, from 0.5 mg/ml, via three-fold dilution increments, and screened on duplicate cell samples.
Expression and functional activity of the human BKB2 receptor in the CHO-K1/B2/Gα15 cell line were validated by exposure to the positive control, bradykinin.
To perform the assay, CHO-K1/B2/Gα15 cells were seeded in wells of a 384-well black-wall, clear-bottom plate at a density of 20,000 cells per well in 20 μL of growth medium 20 hours prior to the day of experiment, and maintained at 37° C./5% CO2. 20 μL of dye-loading solution (FLIPR™ Calcium 4 assay kit, Molecular Devices, Sunnyvale, Calif.) was added into each well and the plate was placed into a 37° C. incubator for 60 minutes, followed by 15 minutes at room temperature. The total reading time was 120 sec. After a 20-second reading to establish the baseline, the antibody or agonist were added to selected wells and the fluorescence signal was captured for another 100 seconds (21 s to 120 s). Readings from wells containing cells stimulated with assay buffer (0.03% Na3N PBS) containing 1% DMSO were chosen as the background values for screening; readings from wells containing cells stimulated with the agonist bradykinin (at 10 uM) were chosen as the positive control.

[5] = target: T2, human BKB2R-derived epitope peptide (SEQ ID NO:73), PEG-biotin (human, also: PEG-biotin, site not given here); test: BLI (Octet), peptide-PEG-biotin on streptavidin sensor, antibody 500 nM
T2 construct: also called immunogenic human BKB2R peptide fragment
T2 peptide: KEYSDEGHNVTAC
Method in brief: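 Streptavidin biosensors loaded with biotin-PEG peptide at 50 μg/ml; antibodies in PBS-based kinetic buffer pH 7.4 with BSA and Tween at 25° C, 1:2 serial dilutions from 500 nM for humanized antibodies. Association and dissociation 500 s each; on rate, off rate and affinity fitted by instrument software, each concentration in duplicate.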

[6] = target: T2, human BKB2R-derived epitope peptide …; test: BLI (Octet), peptide-PEG-biotin on streptavidin sensor, antibody 500 nM; antibody 500 nM (the 250 nM row r17 gives 4.41E-07 M)
Method: (§3) For the Octet study, antibodies were analyzed by kinetic titration of the antibodies. Antibodies were prepared in kinetic buffer (0.001 M phosphate buffered saline (NaCl 0.0138 M; KCl-0.00027 M); pH 7.4, at 25° C., 0.1 mg/ml BSA, 0.002% Tween and 0.005% Sodium Azide) followed by 1:2 serial dilutions.
(§4) Sensor Prep: Streptavidin biosensors (FortéBio Inc, Menlo Park, Calif.) were coated by incubation in a solution containing a peptide ([…]-PEG-biotin) (Biosyn, Lewisville, Tex.) at 50 μg/ml (300 seconds/1000 rpm shaking). 96 well half-volume plates were used for testing. 90 μl of sample was plated per well. Sensors were allowed to equilibrate to baseline in kinetic buffer (60 seconds/1000 rpm). The sensors were then placed into the various antibody dilutions to allow binding (association) to the probe for 500 seconds/1000 rpm, and measurements were taken. The sensors were then moved into kinetic buffer without antibody for dissociation (500 seconds/1000 rpm), and measurements were taken. Octet system software calculated kinetic constants for on rate/off rate/affinity.
(§5) For test humanized monoclonal antibodies, the highest concentration used was 500 nM followed by 1:2 dilutions. Each concentration was tested twice. The HC and LC represented the mouse original 5F12G1 VH and VL sequences.

[7] = target: T2, human BKB2R-derived epitope peptide …; test: BLI (Octet), peptide-PEG-biotin on streptavidin sensor, antibody 250 nM
Method: as §3, §4, §5

[8] = target: T2, human BKB2R-derived epitope peptide …; test: BLI (Octet), peptide-PEG-biotin on streptavidin sensor, antibody 1667 nM
[9] = target: T2, human BKB2R-derived epitope peptide …; test: BLI (Octet), peptide-PEG-biotin on streptavidin sensor, antibody 3333 nM
[10] = target: T2, human BKB2R-derived epitope peptide …; test: BLI (Octet), peptide-PEG-biotin on streptavidin sensor, antibody 833 nM
[11] = target: T2, human BKB2R-derived epitope peptide …; test: BLI (Octet), peptide-PEG-biotin on streptavidin sensor, antibody 1000 nM
[12] = target: T2, human BKB2R-derived epitope peptide …; test: BLI (Octet), peptide-PEG-biotin on streptavidin sensor, antibody 3333 nM; antibody 3333 nM row; the same constants are printed for all four ab 404 concentrations

Molecule: kallidin
Kd (BKB2 receptor [1]): ~0.00089 µM
short lived, in vivo [2]: ~30 s

Molecule: bradykinin (from UniProt P01042 381-389) (peptide)
ED50 (intracellular calcium release, FLIPR, CHO-K1/B2/Gα15 cells) [3]: 0.95 nm/l
percentage of activation (intracellular calcium release, FLIPR, CHO-K1/B2/Gα15 cells) [3]: 93.1%

Molecule: N.N.[Cl][Pt][Cl] [Cisplatin, cisplatin]
EC 50 Values (ng/ml) NUGC-4 (NUGC-4): 1200 ng/mL
EC50 (NUGC-4; read-out: EC 50 NUGC-4, value in brackets): 4.1 µM
EC 50 Values (ng/ml) Hep G2 (Hep G2): 239 ng/mL
EC50 (Hep G2; read-out: EC 50 Hep G2, value in brackets): 0.8 µM
EC 50 Values (ng/ml) BxPC-3 (BxPC-3): 204 ng/mL
EC50 (BxPC-3; read-out: EC 50 BxPC-3, value in brackets): 0.7 µM
EC 50 Values (ng/ml) RS-4;11 (RS-4;11): 344 ng/mL
EC50 (RS-4;11; read-out: EC 50 RS-4;11, value in brackets): 1.1 µM
EC 50 Values (ng/ml) HT-29 (HT-29): 698 ng/mL
EC50 (HT-29; read-out: EC 50 HT-29, value in brackets): 2.3 µM
EC 50 Values (ng/ml) MV-4-11 (MV-4-11): 347 ng/mL
EC50 (MV-4-11; read-out: EC 50 MV-4-11, value in brackets): 1.2 µM
EC 50 Values (ng/ml) PC-3 (PC-3): 753 ng/mL
EC50 (PC-3; read-out: EC 50 PC-3, value in brackets): 2.5 µM

Molecule: RPPGFSPFR [bradykinin]
percentage of activation (BKB2 receptor [4]): 93.1+/−5.7%

Max Response [5]: 0.216
koff [5]: 0.942 s⁻¹
kon [5]: 404000 M⁻¹ s⁻¹
Kd [6]: 2.33 µM
Kd [7]: 0.441 µM
Max Response [7]: 0.286
koff [7]: 0.701 s⁻¹
kon [7]: 1.59e+06 M⁻¹ s⁻¹
B1: humanized anti-BKB2R antibody L1/H1 (antibody, human IgG2, kappa, V domains shown)
VH: EVQLVESGGGLVQPGGSLRLSCAASGFTFSDYWMSWVRQAPGKGLEWVAEIRLKSDNYATHYAESVKGRFTISRDNAKNSLYLQMNSLRAEDTAVYYCTRDYYAMEYWGQGTLVTVSS
VL: DIVMTQSPLSLPVTPGEPASISCRSSQTIVHSNGKTYLEWYLQKPGQSPQLLIYKVSNRFSGVPDRFSGSGSGTDFTLKISRVEAEDVGVYYCFQASHVPYTFGQGTKLEIKR
notes: also called H1/L1

Kd [8]: 0.462 µM
koff [8]: 0.00109 s⁻¹
kon [8]: 2350 M⁻¹ s⁻¹
koff [9]: 0.00109 s⁻¹
kon [9]: 2350 M⁻¹ s⁻¹
Kd [10]: 0.462 µM
koff [10]: 0.00109 s⁻¹
kon [10]: 2350 M⁻¹ s⁻¹
Kd [11]: 0.462 µM
koff [11]: 0.00109 s⁻¹
kon [11]: 2350 M⁻¹ s⁻¹
Kd [12]: 0.462 µM
B2: murine monoclonal anti-BKB2R antibody 5F12G1 (antibody, IgG2b, V domains shown)
VH: EVKLEESGGGLVQPGGSMKLSCVVSGFTFSDYWMSWVRHSPEMGLEWVAEIRLKSDNYATHYAESVKGRFTISRDDSKSRLYLQINSLRGEDTGIYYCTRDYYAMEYWGQGTSVTVSS
VL: DVVMTQTPLSLPVSLGDQASISCRSSQTIVHSNGKTYLEWYLQKPGQSPKLLIYKVSNRFSGVPDRFSGSGSGTEFTLKISRVETEDLGVYYCFQASHVPYTFGGGTKLEIK
notes: also called F512G1
